{
  "source": "the nanobody polyreactivity screen of Harvey et al. (2022)",
  "data": [
    {"assay": "yeast display, Sf9 membrane polyspecificity reagent, FACS + sequencing; frameworks hold sequencing errors", "outline": "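A synthetic nanobody library was expressed on Saccharomyces cerevisiae BJ5465 by galactose induction for 36–48 hours. The library was stained for 1 hour at 4 °C with 10% biotinylated, detergent-solubilized Sf9 membrane reagent and enriched with streptavidin microbeads before FACS. Low and high (top ~1%) gates were set on anti-HA fluorescence for expression and streptavidin fluorescence for reagent binding, and each polyreactivity label reflects the gate of origin.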", "values": [
      {"sequence": "PVQLVESGGRLVQEGGSLRLICAASARIFPYYSMGWSRPAPGKERELVAAITTSGCRTYYADSVKGRFTISRDNAKYSVYLLMNSMKPEYTAVYVCNKYARGYDMDYWGQGTQVTVSS", "polyreactivity (PSR sort gate)": "high polyreactivity"},
      {"sequence": "QAELVESGGGLVQAGGSLRLSCAASGLTFRAYAMGGYRQAPGKERELVAAISWNGGSTYYADSVKGRFTISRDNAKNTVYLQMNCLKPEDTAVYYCNAYDYQYFYGYEYDYWGQGTQVTVSS", "polyreactivity (PSR sort gate)": "high polyreactivity"},
      {"sequence": "QAQLQESGGGLVQADGSLRLCCAASGSIFQTIYMGWYRQAPGKERELVASIDIGANTDYAVSVKGRFTISRDNAKNSVYLQMHSLKPEDTAVYYCAARYSRGRLLVSRGNYWGQGTQVTVSS", "polyreactivity (PSR sort gate)": "high polyreactivity"},
      {"sequence": "QAQLVESGGGLVQAGGSLRLSCAASGYTFTANVMGWYRQAPGKERELVAAISWSGTSTSYADSVKGRFTISRDNAKNNVYLQMNSLKPEDTAVYYCNTVPYYTGSNGYWGQGTQVTVSS", "polyreactivity (PSR sort gate)": "low polyreactivity"},
      {"sequence": "QAQLVETGGGLVQAGGSRRLSCAASGRTYKGYVMGWYRQAPGKEREFVAVITRDGGSTYYAVSVKGRFTISRDNAKNTVYLEMKSLKPEDTEVYYCASTYYPVAGEYDYWGQGTKVTVSS", "polyreactivity (PSR sort gate)": "low polyreactivity"},
      {"sequence": "QAQSVESGGGLVQAGGSLRLICAASGITFGNYAMGWYRQAPGKERALVASISWNVGSTYYADSVKGRFTISRDNAKNTVYLQMNSLKPEDTSVYYCARGYDRPRVATFHRFDYWGQGTQVTVSS", "polyreactivity (PSR sort gate)": "low polyreactivity"},
      {"sequence": "QDHLVDSGGGLVQAGGSLRLSCDASGRIFRWYTMGWYRQAPGKERELVATITSSGITSYADSVKGRFTISRDNAKNTDYLQMNSLKPEDTAVYYCAADHYYYIHGYDYWGQGTQVTVSS", "polyreactivity (PSR sort gate)": "high polyreactivity"},
      {"sequence": "QDHLVESAAGLVQAGGRLRLSCAASGSTLYDYAMVWSRKAPGKDRELVAAIRTGGSTYYADSVKGRFTISRDNAKNTVYLQMNSLKTEDTAVYYCAADHGYQYGYWGQGTQVTVSS", "polyreactivity (PSR sort gate)": "low polyreactivity"},
      {"sequence": "QDHLVESGGGLVEARGSLRLSCAASGFIFRGYAMGWYRQAPGKERELVAAINSGGSTNYADSVKGRFTISRDNAKNTVYLQMNSLKPEDSAVYYCAARWRSWRYKDDYWGQGSQVTVSS", "polyreactivity (PSR sort gate)": "high polyreactivity"},
      {"sequence": "QDHLVESGGGLVQAGGSLRLSCAASGNIIWWNAMGWYRQAPGKERELVAAITSDSTTYYADSVKGRFTISRDNAKNTVYLQLNSLKPEDTAVYYCAAYSYGGQGVDYGYWGQGTQVTVSS", "polyreactivity (PSR sort gate)": "low polyreactivity"},
      {"sequence": "QDHLVESGGGLVQAGGSLRLSCAASGRIFTPNAMGWYRQAPGKERELVAAITSGGSTNYADSVKGRFTISRDNAKNTVYLQMNSLKPQDTAVYYCAVRYYYCSKKRNYWGQGTHVTVSS", "polyreactivity (PSR sort gate)": "high polyreactivity"},
      {"sequence": "QDHLVESGGGLVQAGGTLRLSCAASGRIFVGYAMGWYRQAPGKERELVAGISRSGDSTYYADSVKGRFTISRDNAKNTVYLQMNSLKPEDTAVYYCAASWYKNQTRYYYWGQGTQVTVSS", "polyreactivity (PSR sort gate)": "high polyreactivity"},
      {"sequence": "QDHLVESGVGLVQAGGSLRLSCAASGFAFWTYTMGWYRQAPGKERELVATITRGGRTKYADSVKGRFTISRDNAKNTVYLQMNSLKPEDTAVYYCAAARRRTGVRMDYWGLGTQVTVSS", "polyreactivity (PSR sort gate)": "high polyreactivity"},
      {"sequence": "QDLLVESGGGLVQAGGSLGLSCAASGRIFSIYAMGWYRLAPGKERELVAAITRGGRTNYADSVKGRFTISRDNAKNTDYLQMISLKPEDTAVYYCADRLIDGVVKPYDYWGQGTQVTVSS", "polyreactivity (PSR sort gate)": "low polyreactivity"},
      {"sequence": "QDPHVESGGGIVQAGGSISLRCSASGSTYAKKAMVRYRKAPGKEKELFADISASGGSTYYADSVKGRFTISRDIAKNSVYLQMYSLKPEETSVYYWAKSSYLTRGSRYDYWGQGTQVTLSS", "polyreactivity (PSR sort gate)": "low polyreactivity"},
      {"sequence": "QDQHVESGGGLVQAGGSLRLSCAASGIIFYAYVMGWYRQAPGKERELVAAITVSGGSTYYADSVKARFTISRDNAKNTVYLQMNSLKPEDTAVYYCAADWNFYQRTFDSWGQGTQVTVSS", "polyreactivity (PSR sort gate)": "low polyreactivity"},
      {"sequence": "QDQHVESGGGLVQAGGSLRLSCAASGITIRTNAIGWYRQAPGKERELVAAITTNGGNTYYADSVKGRFTISRENAKNTVYLQMNSLKQEDTAVYYCNTATYVDSFPDPGDHWGQGTQVTVSS", "polyreactivity (PSR sort gate)": "low polyreactivity"}
    ]}
  ]
}
